These results are taken from the supplement of paper PMC5998384.

The test system of series [1] is HeLa Kyoto. The series is described as follows: solubility in G1/S (NP-40 vs SDS abundance) (log2 ratio); higher = more soluble. To be noted: cell cycle stage: G1/S.
Series [2] relates to HeLa Kyoto. The series can be described thus: melting temperature (median over replicates), in situ; higher = more thermally stable.
Series [3] deals with HeLa Kyoto. The series can be described thus: solubility change mitosis vs G1/S (difference of NP-40 vs SDS log2 ratios) (log2 ratio difference); higher = more soluble in mitosis.
Series [4] relates to HeLa Kyoto. The series can be described thus: thermal stability score vs G1/S (z-score of summed log2 fold changes over temperatures); higher = more thermally stable than in G1/S.
Where [5] appears, read: cell cycle stage: early G1 (4.5 h after nocodazole release).
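Wherever melting temperature (median over replicates), in situ is given: HeLa Kyoto cells synchronized by double thymidine or nocodazole block, proteins quantified by TMT10plex mass spectrometry, three independent biological replicates.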
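Wherever solubility change mitosis vs G1/S (difference of NP-40 vs SDS log2 ratios) is given: synchronized HeLa Kyoto cells (double thymidine block for G1/S, nocodazole release for mitosis), protein amounts in NP-40 versus SDS lysates quantified by mass spectrometry, three biological replicates.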
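Wherever solubility in G1/S (NP-40 vs SDS abundance) is given: HeLa Kyoto cells arrested at G1/S by double thymidine block, proteins quantified by TMT10plex mass spectrometry in mild NP-40 versus SDS extracts, three biological replicates.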
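Wherever thermal stability score vs G1/S (z-score of summed log2 fold changes over temperatures) is given: synchronized HeLa Kyoto cells, proteins quantified by TMT10plex mass spectrometry, three biological replicates, mitosis taken 0.5 h after nocodazole release, G1/S directly after double thymidine block.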

Regarding “MAQTVQNVTLSLTLPITCHICLGKVRQPVICINNHVFCSICIDLWLKNNSQCPACRVPITPENPCKEIIGGTSESEPMLSHTVRKHLRKTRLELLHKEYEDEIDCLQKEVEELKSKNLSLESQIKTILDPLTLVQGNQNEDKHLVTDNPSKINPETVAEWKKKLRTANEIYEKVKDDVDKLKEANKKLKLENGGLVRENLRLKAEVDNRSPQKFGRFAVAALQSKVEQYERETNRLKKALERSDKYIEELESQVAQLKNSSEEKEAMNSICQTALSADGKGSKGSEEDVVSKNQGDSARKQPGSSTSSSSHLAKPSSSRLCDTSSARQESTSKADLNCSKNKDLYQEQVEVMLDVTDTSMDTYLEREWGNKPSDCVPYKDEELYDLPAPCTPLSLSCLQLSTPENRESSVVQAGGSKKHSNHLRKLVFDDFCDSSNVSNKDSSEDDISRSENEKKSECFSSPKTGFWDCCSTSYAQNLDFESSEGNTIANSVGEISSKLSEKSGLCLSKRLNSIRSFEMNRTRTSSEASMDAAYLDKISELDSMMSESDNSKSPCNNGFKSLDLDGLSKSSQGSEFLEEPDKLEEKTELNLSKGSLTNDQLENGSEWKPTSFFLLSPSDQEMNEDFSLHSSSCPVTNEIKPPSCLFQTEFSQGILLSSSHRLFEDQRFGSSLFKMSSEMHSLHNHLQSPWSTSFVPEKRNKNVNQSTKRKIQSSLSSASPSKATKS [RNF219]”, the “solubility in G1/S (log2)” value in the series on HeLa Kyoto [1] was -0.0524. Besides, the melting temperature in the series on HeLa Kyoto [2] (cell cycle stage: G1/S) was 46.5 °C; in the series with HeLa Kyoto [2] (cell cycle stage: mitosis), 49.3 °C. For the same sequence, the “solubility change mitosis (log2)” value in the series with HeLa Kyoto [3] was -0.0524. Also, the values for the thermal stability score with HeLa Kyoto [4] (setting [5]) and with HeLa Kyoto [4] (cell cycle stage: mitosis) were 0.213 and 2.43, respectively.

Take “MAQYKGAASEAGRAMHLMKKREKQREQMEQMKQRIAEENIMKSNIDKKFSAHYDAVEAELKSSTVGLVTLNDMKAKQEALVKEREKQLAKKEQSKELQMKLEKLREKERKKEAKRKISSLSFTLEEEEEGGEEEEEAAMYEEEMEREEITTKKRKLGKNPDVDTSFLPDRDREEEENRLREELRQEWEAKQEKIKSEEIEITFSYWDGSGHRRTVKMRKGNTMQQFLQKALEILRKDFSELRSAGVEQLMYIKEDLIIPHHHSFYDFIVTKARGKSGPLFNFDVHDDVRLLSDATVEKDESHAGKVVLRSWYEKNKHIFPASRWEPYDPEKKWDKYTIR [FAM50A]”: the “solubility in G1/S (log2)” value in the series with HeLa Kyoto [1] came out at 0.0519. In addition, the melting temperature with HeLa Kyoto [2] (cell cycle stage: G1/S) turned out to be 48.4 °C; in the series on HeLa Kyoto [2] (cell cycle stage: mitosis), 50.3 °C. Also, the “solubility change mitosis (log2)” value in the series on HeLa Kyoto [3] was -0.0697. In addition, the thermal stability score in the series with HeLa Kyoto [4] (setting [5]) turned out to be 1.03; in the series with HeLa Kyoto [4] (cell cycle stage: mitosis), 2.04.

For “MARCERLRGAALRDVLGRAQGVLFDCDGVLWNGERAVPGAPELLERLARAGKAALFVSNNSRRARPELALRFARLGFGGLRAEQLFSSALCAARLLRQRLPGPPDAPGAVFVLGGEGLRAELRAAGLRLAGDPSAGDGAAPRVRAVLVGYDEHFSFAKLREACAHLRDPECLLVATDRDPWHPLSDGSRTPGTGSLAAAVETASGRQALVVGKPSPYMFECITENFSIDPARTLMVGDRLETDILFGHRCGMTTVLTLTGVSRLEEAQAYLAAGQHDLVPHYYVESIADLTEGLED [PDXP]”, the “solubility in G1/S (log2)” value with HeLa Kyoto [1] is 0.126. The melting temperature in the series on HeLa Kyoto [2] (cell cycle stage: G1/S) worked out at 56.7 °C; with HeLa Kyoto [2] (cell cycle stage: mitosis), 57.5 °C. In the series on HeLa Kyoto [3], the “solubility change mitosis (log2)” value was -0.126. The thermal stability score is -2.14 with HeLa Kyoto [4] (setting [5]) and -1.83 in the series on HeLa Kyoto [4] (cell cycle stage: mitosis).

Turning to “MARGERRRRAVPAEGVRTAERAARGGPGRRDGRGGGPRSTAGGVALAVVVLSLALGMSGRWVLAWYRARRAVTLHSAPPVLPADSSSPAVAPDLFWGTYRPHVYFGMKTRSPKPLLTGLMWAQQGTTPGTPKLRHTCEQGDGVGPYGWEFHDGLSFGRQHIQDGALRLTTEFVKRPGGQHGGDWSWRVTVEPQDSGTSALPLVSLFFYVVTDGKEVLLPEVGAKGQLKFISGHTSELGDFRFTLLPPTSPGDTAPKYGSYNVFWTSNPGLPLLTEMVKSRLNSWFQHRPPGAPPERYLGLPGSLKWEDRGPSGQGQGQFLIQQVTLKIPISIEFVFESGSAQAGGNQALPRLAGSLLTQALESHAEGFRERFEKTFQLKEKGLSSGEQVLGQAALSGLLGGIGYFYGQGLVLPDIGVEGSEQKVDPALFPPVPLFTAVPSRSFFPRGFLWDEGFHQLVVQRWDPSLTREALGHWLGLLNADGWIGREQILGDEARARVPPEFLVQRAVHANPPTLLLPVAHMLEVGDPDDLAFLRKALPRLHAWFSWLHQSQAGPLPLSYRWRGRDPALPTLLNPKTLPSGLDDYPRASHPSVTERHLDLRCWVALGARVLTRLAEHLGEAEVAAELGPLAASLEAAESLDELHWAPELGVFADFGNHTKAVQLKPRPPQGLVRVVGRPQPQLQYVDALGYVSLFPLLLRLLDPTSSRLGPLLDILADSRHLWSPFGLRSLAASSSFYGQRNSEHDPPYWRGAVWLNVNYLALGALHHYGHLEGPHQARAAKLHGELRANVVGNVWRQYQATGFLWEQYSDRDGRGMGCRPFHGWTSLVLLAMAEDY [MOGS]”, in the series on HeLa Kyoto [1], the “solubility in G1/S (log2)” value was -0.0875. The melting temperature in the series on HeLa Kyoto [2] (cell cycle stage: G1/S) turned out to be 52.9 °C; in the series with HeLa Kyoto [2] (cell cycle stage: mitosis), 52.8 °C. Further, the “solubility change mitosis (log2)” value in the series on HeLa Kyoto [3] was -0.0215. Further, the figures for the thermal stability score in the series on HeLa Kyoto [4] (setting [5]) and with HeLa Kyoto [4] (cell cycle stage: mitosis) were 3.25 and 3.97, respectively.

Take “MARGGRGRRLGLALGLLLALVLAPRVLRAKPTVRKERVVRPDSELGERPPEDNQSFQYDHEAFLGKEDSKTFDQLTPDESKERLGKIVDRIDNDGDGFVTTEELKTWIKRVQKRYIFDNVAKVWKDYDRDKDDKISWEEYKQATYGYYLGNPAEFHDSSDHHTFKKMLPRDERRFKAADLNGDLTATREEFTAFLHPEEFEHMKEIVVLETLEDIDKNGDGFVDQDEYIADMFSHEENGPEPDWVLSEREQFNEFRDLNKDGKLDKDEIRHWILPQDYDHAQAEARHLVYESDKNKDEKLTKEEILENWNMFVGSQATNYGEDLTKNHDEL [RCN1]”: the “solubility in G1/S (log2)” value in the series on HeLa Kyoto [1] is 0.419. Besides, the melting temperature stood at 55 °C in the series on HeLa Kyoto [2] (cell cycle stage: G1/S) and 56.4 °C with HeLa Kyoto [2] (cell cycle stage: mitosis). The “solubility change mitosis (log2)” value in the series on HeLa Kyoto [3] worked out at 0.0254. Besides, the thermal stability score in the series with HeLa Kyoto [4] (setting [5]) came to 1.52; in the series on HeLa Kyoto [4] (cell cycle stage: mitosis) it was 1.33.

Take “MARLWGALSLWPLWAAVPWGGAAAVGVRACSSTAAPDGVEGPALRRSYWRHLRRLVLGPPEPPFSHVCQVGDPVLRGVAAPVERAQLGGPELQRLTQRLVQVMRRRRCVGLSAPQLGVPRQVLALELPEALCRECPPRQRALRQMEPFPLRVFVNPSLRVLDSRLVTFPEGCESVAGFLACVPRFQAVQISGLDPNGEQVVWQASGWAARIIQHEMDHLQGCLFIDKMDSRTFTNVYWMKVND [PDF]”: the “solubility in G1/S (log2)” value in the series with HeLa Kyoto [1] is 0.308. Besides, the figures for the melting temperature in the series with HeLa Kyoto [2] (cell cycle stage: G1/S) and with HeLa Kyoto [2] (cell cycle stage: mitosis) were 54.8 °C and 54.9 °C, respectively. The “solubility change mitosis (log2)” value in the series with HeLa Kyoto [3] is -0.136. Besides, the thermal stability score in the series with HeLa Kyoto [4] (setting [5]) was 1.03; in the series with HeLa Kyoto [4] (cell cycle stage: mitosis), 0.625.
